According to patent US20220275053A1, “MODIFIED […] PEPTIDE LIGANDS” (BicycleTx Limited, priority 2019, published 2022):
*1 amine or outer side, *2 acyl side, *3 side chain or, on linkers, in order; H or OH if unused. Where a SMILES comes first, the peptide text is derived from it. Bridges are numbered along the chain shown (N, C = ends). Roman numbers before positions name the chains, in order. [ ]: non-standard residue; d: D form. X1 = N=c1ccc2c(-c3ccc(C(=O)NCCOCCOCCN(CCOCCOCCOCCn4cc(CCC(=O)[*:1])nn4)CCOCCOCCOCCn4cc(CCC(=O)[*:2])nn4)cc3C(=O)O)c3ccc(N)c(S(=O)(=O)O)c3oc-2c1S(=O)(=O)O; TATA = O=C(CC[*:1])N1CN(C(=O)CC[*:2])CN(C(=O)CC[*:3])C1; tBuAla = CC(C)(C)C[C@H](N)C(=O)O; Nle = CCCC[C@H](N)C(=O)O

Key:
CD137 [1] = biological target: T1, CD137 (Homo sapiens, UniProt Q07011); assay: BCY15416 direct binding to CD4 and CD8 positive T-cells (CD3 stimulated PBMCs, flow cytometry)
T1 construct: Human peripheral blood mononuclear cells (PBMCs) were isolated from buffy coats from two donors; endogenous in cells
T1 sequence (Q07011 24-255): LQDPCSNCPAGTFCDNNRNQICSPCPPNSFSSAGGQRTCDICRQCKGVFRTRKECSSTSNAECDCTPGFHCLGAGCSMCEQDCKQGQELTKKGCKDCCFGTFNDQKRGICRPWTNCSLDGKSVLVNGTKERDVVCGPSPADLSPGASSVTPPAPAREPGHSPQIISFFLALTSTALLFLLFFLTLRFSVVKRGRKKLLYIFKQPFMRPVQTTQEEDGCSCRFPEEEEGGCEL
Experimental: To evaluate the affinity of a CD137 dimeric Bicycle® peptide conjugated to Alexa Fluor® 488, herein referred to as BCY15416, a binding assay utilizing CD3 stimulated primary peripheral blood mononuclear cells (PBMCs) was implemented.
On the day of the experiment, medium was prepared by supplementing RPMI-1640 (Gibco™ 11875-093; with L-glutamine) with 10% heat-inactivated fetal bovine serum (FBS; Corning® 35-011-CV), 10 mM HEPES (Gibco™ 15-630-080), and 1% Penicillin Streptomycin (Corning™ 30-002-CI), herein referred to as working medium. Previously isolated human peripheral blood mononuclear cells (PBMCs), from whole blood, were quick thawed in a water bath and washed once at 500 rpm for 5 minutes in 10 mL of prewarmed working medium. PBMC pellet was then resuspended in working medium at a concentration of 3×10^6 cells/mL. Subsequently, 100 μL of cell suspension was plated in a flat-bottom tissue-culture coated 96-well plate (Greiner CellStar® 655180). Anti-human CD3 (200 ng/mL; BioLegend® 317347; clone OKT3) was added to the cell plate (100 μL/well) at a final concentration of 100 ng/mL Whereas, for unstimulated controls 100 μL of working medium was added. Cells were incubated overnight (12-24 hours) at 37° C., 5% CO2.
Plates were then incubated for 1 hour at 37° C., 5% CO2. Post-incubation, plate was centrifuged at 500 rpm for 5 minutes and supernatant discarded. Samples were then washed once in 200 μL of 1× phosphate buffer saline (PBS; Gibco™ 10-010-023) at 500 rpm for 5 minutes. Cells were resuspended in 200 μL of PBS and transferred to a 96-well V-bottom polypropylene plate (Greiner Bio-One 651201). Samples were then centrifuged at 500 rpm for 5 minutes and supernatant was discarded.
Preparation of samples for flow cytometry: Zombie Violet™ Fixable Viability Dye (BioLegend® 423113) was prepared as a 1:1000 dilution in PBS and 100 μL of viability dye was added to each well and incubated in the dark at 4° C. for 30 minutes. Subsequently, wells were washed with 100 μL of PBS for 5 minutes at 500 rpm and supernatant was discarded. Next, human TruStain FcX™ block (BioLegend® 422302) was prepared by diluting 1.5 μL of FcX in 25 μL of stain buffer (1×PBS supplemented with 2% FBS). Fc block solution (25 μL/well) was incubated at room temperature (RT) for 10 minutes in the dark. […] Cells resuspended in 200 μL of stain buffer were kept at 4° C. and in the dark until read by BD FACSCelesta™ flow cytometer and FCS files were analyzed in FlowJo™.
Cells were gated on lymphocytes→singlets→live→CD4+ or CD8+→CD137+/− and the geometric mean of Alexa Fluor® 488 (conjugated to BCY15416) was calculated from the CD137+ and CD137− populations shown below. […] Calculated binding affinity (kd,app) for each donor appear in Table 5.

CD137 [2] = biological target: T2, CD137 (Macaca fascicularis, UniProt A9YYE7); assay: Fluorescent multimer cyno immune cell direct binding assay (FACS); set-up: species or system cynomolgus monkey; conditions: FIG. 4
T2 construct: Cryopreserved PBMCs were purchased from Worldwide Primates and thawed according to standard protocol
T2 sequence (A9YYE7 1-254): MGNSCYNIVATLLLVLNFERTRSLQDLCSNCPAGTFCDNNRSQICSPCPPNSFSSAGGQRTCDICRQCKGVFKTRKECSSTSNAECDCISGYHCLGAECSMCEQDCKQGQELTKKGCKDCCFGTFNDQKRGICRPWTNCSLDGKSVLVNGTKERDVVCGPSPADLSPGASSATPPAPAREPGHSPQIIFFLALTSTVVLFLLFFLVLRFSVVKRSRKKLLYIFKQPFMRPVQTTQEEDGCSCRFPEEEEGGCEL
Experimental: Cryopreserved PBMCs were purchased from Worldwide Primates and thawed according to standard protocol. CD8+ T cells were then isolated from the PBMCs with a MACS CD8+ T cell isolation kit (negative bead selection) according to the manufacturer's protocol (Miltenyi Biotec). Purified CD8+ T cells were then activated for 48 hours 96 well plates coated with CD3 antibody (1 μg/ml) in R10 media (RPMI1640+10% FBS+1× Pen-Strep). Cells were incubated in R10 media in the presence of fluorescent CD137 multimers or a fluorescent EphA2 bicyclic peptide monomer (BCY0215), which was used as a negative control, at different concentrations for 1 hour at 37° C. After 1 hour, cells were transferred to a V-bottom plate and washed and stained for FACs analysis. Briefly, cells were stained in 1× Live/Dead BV510 for 15 minutes, washed, and then surface stained with the following antibodies: CD8-BV785 and CD137-PECy5 (diluted 1:100 in 2% FBS/PBS). Cells were then washed and fixed in 2% paraformaldehyde (PFA). Cells were run on the BD FACSCelesta and FCS files were analyzed in FlowJo. Cells were gated on Single/Live/Lymphocytes/CD8+/CD137+ or CD137−. The FITC geometric mean of the CD137+ population is shown.

CD137 [3] = biological target: T1, CD137; assay: Fluorescent multimers human immune cell direct binding assay (FACS); conditions: FIG. 3A
Experimental: Human peripheral blood mononuclear cells (PBMCs) were isolated from buffy coats from two donors according to standard protocols. PBMCs were used for the next step or alternatively CD8+ T cells were then isolated from the PBMCs with a MACS CD8+ T cell isolation kit (negative bead selection) according to the manufacturer's protocol (Miltenyi Biotec). PBMCs or purified CD8+ T cells were then activated for 24 hours in tissue culture flasks coated with CD3 antibody in R10 media (RPMI1640+10% FBS+1× Pen-Strep). Alternatively, cells were incubated in R10 media containing 1 μg/ml of soluble CD3 antibody (OKT3) for 24 hours. Cells were then transferred to CD3-coated 96-well flat bottom plates and incubated in R10 media in the presence of fluorescent CD137 multimers or a fluorescent EphA2 bicyclic peptide monomer (BCY0215), which was used as a negative control, at different concentrations for 1 hour at 37° C. After 1 hour, cells were transferred to a V-bottom plate and washed and stained for FACs analysis. Briefly, cells were stained in 1× Live/Dead BV510 for 15 minutes, washed, and then surface stained with the following antibodies: CD8-BV785 (or CD3-BV605) and CD137-PECy5 (diluted 1:100). Cells were then washed and fixed in 2% paraformaldehyde (PFA). Cells were run on the BD FACSCelesta and FCS files were analyzed in FlowJo. […]

human CD137 = biological target: T3, human CD137 (human, UniProt Q07011 24-255); assay: flow cytometry, direct binding to activated human CD8+/CD137+ T cells
T3 construct: whole, on cells; Endogenous receptor on CD3-stimulated human PBMCs or purified CD8+ T cells; also called CD137 receptor; 4-1BB
T3 sequence (Q07011 24-255): as the sequence (Q07011 24-255) above

CCCC[C@@H]1NC(=O)[C@H](Cc2ccc(O)cc2)NC(=O)[C@@H]2CCCN2C(=O)[C@H](CC(=O)O)NC(=O)[C@H](C)NC(=O)[C@H](Cc2ccccc2)NC(=O)[C@@H]2CSCCC(=O)N3CN(CN(C3)C(=O)CCSC[C@@H](C(=O)N[C@@H](C)C(N)=O)NC1=O)C(=O)CCSC[C@H](NC(C)=O)C(=O)N[C@@H](CC(C)(C)C)C(=O)N1CCC[C@H]1C(=O)N[C@@H](CCC(=O)O)C(=O)N[C@H](CCCCNC(=O)CCc1cn(CCOCCOCCOCCN(CCOCCOCCNC(=O)c3ccc(-c4c5ccc(=N)c(S(=O)(=O)O)c-5oc5c(S(=O)(=O)O)c(N)ccc45)c(C(=O)O)c3)CCOCCOCCOCCn3cc(CCC(=O)NCCCC[C@H]4NC(=O)[C@H](CCC(=O)O)NC(=O)[C@@H]5CCCN5C(=O)[C@H](CC(C)(C)C)NC(=O)[C@@H](NC(C)=O)CSCCC(=O)N5CN6CN(C5)C(=O)CCSC[C@H](NC(=O)[C@H](Cc5ccc(O)cc5)NC(=O)[C@@H]5CCCN5C4=O)C(=O)N[C@@H](Cc4ccccc4)C(=O)N[C@@H](C)C(=O)N[C@@H](CC(=O)O)C(=O)N4CCC[C@H]4C(=O)N[C@@H](Cc4ccc(O)cc4)C(=O)N[C@@H](CCCC)C(=O)N[C@H](C(=O)N[C@@H](C)C(N)=O)CSCCC6=O)nn3)nn1)C(=O)N1CCC[C@H]1C(=O)N[C@@H](Cc1ccc(O)cc1)C(=O)N2 [BCY15416] (I: Ac-C[tBuAla]PE[dK]PYCFADPY[Nle]CA-NH2 / II: Ac-C[tBuAla]PE[dK]PYCFADPY[Nle]CA-NH2; linker I:1-I:8-I:15, II:1-II:8-II:15 via TATA; linker I:5-II:5 via X1; C-terminus assumed)
binding to CD137+ T-cells (Alexa Fluor 488 geometric mean) (CD137 [1]; CD137+CD4+ and CD137+CD8+ T-cells, three human PBMC donors, FIG. 6): binding exclusively to the CD137+CD4+ T-cells and CD137+CD8+ T-cells, in a dose-dependent manner | binding to CD137− T cells (CD137 [1]; CD137− CD4 and CD8 T cells, FIGS. 6A and 6B): does not bind | binding affinity in CD137− populations (CD137 [1]; CD137− populations for both CD4+ and CD8+): unable to be calculated | binding affinity (range in words) (CD137 [1]; both CD137+CD4+ and CD137+CD8+ populations): sub-nanomolar range

BCY7340: Fluorescent CD137 dimer: formula (II), CHM C, 2 x BCY7077, SA n=23, fluorescein modifier (CIEEGQYCFADPYMCAX; not fully specified; non-natural residues; cyclised or stapled)
binding potency relative to fluorescent trimer (BCY9932) and tetramer (BCY9931) (CD137 [2]; cyno CD137+ T cells): less potent binding | binding to cyno CD137+ T cells (FITC geometric mean) (CD137 [2]; purified CD8+/CD137+ T cells from cynomolgus monkey PBMCs, 1 hour at 37° C.): bind to cyno CD137+ T cells in a dose responsive manner | binding potency relative to fluorescent trimer (BCY9932) and tetramer (BCY9931) (CD137 [3]; human CD137+ T cells): slightly less potent binding | binding to human CD137+ T cells (FITC geometric mean) (CD137 [3]; purified CD8+/CD137+ T cells from human PBMCs, 1 hour at 37° C.): bind to human CD137+ T cells in a dose responsive manner

B1: BCY9931 (peptide)
peptide: ACIEEGQYCFADPYXCX
modifications: N-terminal acetyl; Nle (norleucine) at position 12 of the core; C-terminal Dap(Lys(PYA)) amide (CONH2); the three Cys (Ci, Cii, Ciii) cyclised on the TATA scaffold; joined through PYA to spacer SA (n = 23) on central hinge moiety A; Alexa Fluor 488 conjugated to one of the four peptides (formula (I))
notes: also called fluorescent CD137 multimer; fluorescent tetramer
binding result (human CD137): binds

B2: BCY7340 (peptide)
peptide: CIEEGQYCFADPYMCAX
modifications: N-terminal acetyl; C-terminal Pra (propargylglycine) amide (CONH2); the three Cys cyclised on the TATA scaffold; joined through Pra to spacer SA (n = 23) on central hinge moiety C; fluorescein on the hinge without spacer (formula (II))
notes: also called fluorescent CD137 multimer; fluorescent CD137 dimer
binding result (human CD137): binds

B3: BCY9932 (peptide)
peptide: ACIEEGQYCFADPYXCX
modifications: N-terminal acetyl; Nle (norleucine) at position 12 of the core; C-terminal Dap(PYA) amide (CONH2); the three Cys cyclised on the TATA scaffold; joined through PYA to spacer SA (n = 10) on central hinge moiety B; Alexa Fluor 488 on the hinge without spacer (formula (II))
notes: also called fluorescent CD137 multimer; fluorescent trimer
binding result (human CD137): binds
